Test results from article PMC3269963 (Journal of Immunology (Baltimore, Md. : 1950), 2011).

Target: recombinant His-tag PCNA (proliferating cell nuclear antigen) (human, UniProt P12004 1-261)
Assay: SPR

Chain of recombinant His-tag PCNA (proliferating cell nuclear antigen) (P12004 whole entry): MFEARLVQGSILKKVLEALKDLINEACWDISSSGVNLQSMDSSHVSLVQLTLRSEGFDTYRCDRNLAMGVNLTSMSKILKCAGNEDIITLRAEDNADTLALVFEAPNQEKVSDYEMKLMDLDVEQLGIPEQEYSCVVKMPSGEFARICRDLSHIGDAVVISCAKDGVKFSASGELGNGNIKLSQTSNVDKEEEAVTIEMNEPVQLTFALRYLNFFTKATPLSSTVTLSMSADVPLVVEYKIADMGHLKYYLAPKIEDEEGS

- Kd: 3.4 nM
B1: NKp44-Ig (Fc fusion, UniProt O95944 22-192, looked up)
chain: QSKAQVLQSVAGQTLTVRCQYPPTGSLYEKKGWCKEASALVCIRLVTSSKPRTMAWTSRFTIWDDPDAGFFTVTMTDLREEDSGHYWCRIYRPSDNSVSKSVRFYLVVSPASASTQTSWTPRDLVSSQTQTQSCVPPTAGARQAPESPSTIPVPSQPQNSTLRPGPAAPIA
